Biological target: trypsin-processed Vip3Cb1 toxin (Paenibacillus sp. strain DSC004343)
Experiment: cryo-EM structure

“trypsin-processed Vip3Cb1 toxin (complex)” showed a stoichiometry N of 4.
